Measurements reported in patent US20130316951A1.

Target: platelet glycoprotein (GP) IIb/IIIa on platelets of mouse platelet rich plasma (mouse) (UniProt Q9QUM0)
Experiment: cell-based or functional assay

platelet glycoprotein (GP) IIb/IIIa on platelets of mouse platelet rich plasma (mouse), sequence (Q9QUM0 32-1033, chain 1 of 2): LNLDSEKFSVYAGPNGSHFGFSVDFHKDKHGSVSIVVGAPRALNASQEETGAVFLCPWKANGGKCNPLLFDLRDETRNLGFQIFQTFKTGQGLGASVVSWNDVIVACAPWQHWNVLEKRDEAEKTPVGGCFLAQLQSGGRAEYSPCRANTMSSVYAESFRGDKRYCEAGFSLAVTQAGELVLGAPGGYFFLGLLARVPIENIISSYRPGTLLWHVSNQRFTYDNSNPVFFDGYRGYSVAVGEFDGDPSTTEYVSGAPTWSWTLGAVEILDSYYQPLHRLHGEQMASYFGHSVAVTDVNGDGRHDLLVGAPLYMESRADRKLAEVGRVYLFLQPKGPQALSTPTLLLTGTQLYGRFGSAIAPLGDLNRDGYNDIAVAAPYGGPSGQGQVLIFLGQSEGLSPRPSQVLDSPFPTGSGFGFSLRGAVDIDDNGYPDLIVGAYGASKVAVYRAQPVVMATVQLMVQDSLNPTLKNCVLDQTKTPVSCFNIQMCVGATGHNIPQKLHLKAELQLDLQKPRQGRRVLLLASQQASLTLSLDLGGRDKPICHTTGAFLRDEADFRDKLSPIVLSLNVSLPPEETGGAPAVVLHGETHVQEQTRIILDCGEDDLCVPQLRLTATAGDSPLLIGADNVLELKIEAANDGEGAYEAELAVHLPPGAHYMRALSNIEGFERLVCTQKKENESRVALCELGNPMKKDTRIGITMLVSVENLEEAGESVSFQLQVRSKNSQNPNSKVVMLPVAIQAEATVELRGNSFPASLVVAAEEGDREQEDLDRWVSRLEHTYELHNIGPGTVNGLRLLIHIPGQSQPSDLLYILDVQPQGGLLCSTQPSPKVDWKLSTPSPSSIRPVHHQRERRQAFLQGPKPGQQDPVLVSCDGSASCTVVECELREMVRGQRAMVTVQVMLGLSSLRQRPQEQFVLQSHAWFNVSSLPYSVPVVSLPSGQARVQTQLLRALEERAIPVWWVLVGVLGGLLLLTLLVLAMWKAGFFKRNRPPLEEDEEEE
platelet glycoprotein (GP) IIb/IIIa on platelets of mouse platelet rich plasma (mouse), sequence (O54890 26-787, chain 2 of 2, further chain): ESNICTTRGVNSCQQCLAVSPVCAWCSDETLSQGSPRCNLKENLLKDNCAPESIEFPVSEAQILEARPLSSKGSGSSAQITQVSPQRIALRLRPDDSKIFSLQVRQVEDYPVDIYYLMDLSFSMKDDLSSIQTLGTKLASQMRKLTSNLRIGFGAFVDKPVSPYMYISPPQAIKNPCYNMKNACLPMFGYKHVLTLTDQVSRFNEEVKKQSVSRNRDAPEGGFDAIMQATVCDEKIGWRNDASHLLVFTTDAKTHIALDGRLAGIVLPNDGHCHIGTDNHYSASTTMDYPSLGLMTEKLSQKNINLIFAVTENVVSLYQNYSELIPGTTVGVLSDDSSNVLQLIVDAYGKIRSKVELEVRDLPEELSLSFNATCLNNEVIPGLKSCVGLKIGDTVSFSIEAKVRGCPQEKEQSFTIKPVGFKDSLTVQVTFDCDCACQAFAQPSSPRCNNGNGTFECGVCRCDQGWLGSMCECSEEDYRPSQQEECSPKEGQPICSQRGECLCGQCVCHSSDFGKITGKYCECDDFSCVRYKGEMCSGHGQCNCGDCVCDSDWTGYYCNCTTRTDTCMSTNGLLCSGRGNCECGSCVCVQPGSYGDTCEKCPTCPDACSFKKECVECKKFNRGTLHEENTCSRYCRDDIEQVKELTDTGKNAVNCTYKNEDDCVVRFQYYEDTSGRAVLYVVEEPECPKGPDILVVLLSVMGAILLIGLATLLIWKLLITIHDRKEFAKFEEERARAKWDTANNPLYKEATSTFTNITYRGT

recombinant saxatilin (from UniProt Q9DGH6 1-73) (ligand)
IC50 of inhibition of ADP-induced platelet aggregation, mouse PRP, aggregometer: 176 nM
treatment concentration giving a similar level of platelet aggregation inhibition: 0.7 µM
